Reference: patent US12570994B2, “Plants having increased tolerance to herbicides” (BASF AGRO B.V., priority 2010, dated 2026)
Changes are numbered by the printed parent chain. Names may count otherwise.

B1: F420M: amino acid substituted PPO enzyme F420M (protein, listed as Amaranthus tuberculatum)
chain: MVIQSITHLSPNLALPSPLSVSTKNYPVAVMGNISEREEPTSAKRVAVVGAGVSGLAAAYKLKSHGLSVTLFEADSRAGGKLKTVKKDGFIWDEGANTMTESEAEVSSLIDDLGLREKQQLPISQNKRYIARDGLPVLLPSNPAALLTSNILSAKSKLQIMLEPFLWRKHNATELSDEHVQESVGEFFERHFGKEFVDYVIDPFVAGTCGGDPQSLSMHHTFPEVWNIEKRFGSVFAGLIQSTLLSKKEKGGENASIKKPRVRGSFSFQGGMQTLVDTMCKQLGEDELKLQCEVLSLSYNQKGIPSLGNWSVSSMSNNTSEDQSYDAVVVTAPIRNVKEMKIMKFGNPFSLDFIPEVTYVPLSVMITAFKKDKVKRPLEGFGVLIPSKEQHNGLKTLGTLFSSMMFPDRAPSDMCLFTTMVGGSRNRKLANASTDELKQIVSSDLQQLLGTEDEPSFVNHLFWSNAFPLYGHNYDSVLRAIDKMEKDLPGFFYAGNHKGGLSVGKAMASGCKAAELVISYLDSHIYVKMDEKTA
B2: R128A: amino acid substituted PPO enzyme R128A (protein, listed as Amaranthus tuberculatum)
chain: B1 chain with R128A, M420F
B3: F420L: amino acid substituted PPO enzyme F420L (protein, listed as Amaranthus tuberculatum)
chain: B1 chain with M420L

Experiments:
[1] = system: Chlamydomonas reinhardtii; assay: Selection of mutagenized algae cells on solid medium with herbicide; settings: solid medium containing 1×10^−7 M
Method: Algae cells of Chlamydomonas reinhardtii strains CC-503 and CC-1691 (Duke University, Durham, USA) are propagated in TAP medium (Gorman and Levine (1965) PNAS 54:1665-1669) by constant shaking at 100 rpm, 22° C. and 30 μmol Phot*m^−2*s^−2 light illumination. […] Compound screening is performed at 450 μmol Phot*m^−2*s^−2 illumination.
Sensitive strains of Chlamydomonas reinhardtii or Scenedesmus obliquus are mutated with 0.14 M ethylmethanesulfonate (EMS) for 1 h as described by Loppes (1969, 20 Mol Gen Genet 104:172-177) Tolerant strains are identified by screening of mutagenized cells on solid nutrient solution plates containing benzoxazinone-derivative herbicide of interest at low to lethal concentrations depending on compound activity in specific algae strain.
(A) Mutagenized cells plated on solid medium without a selecting agent. (B) Mutagenized cells plated on solid medium containing 1×10^−7 M benzoxazinone-derivative I.a.35.

wild type PPO enzyme = wild type PPO enzyme (Amaranthus tuberculatus, UniProt Q0NZW9); assay: PPO enzyme assay (recombinant), wild type; type: biochemical; settings: 150 μM Protogen
[2] = Enzyme activity of recombinant wild type and substituted PPO enzymes; settings: fluorescence unit change per minute

Molecule | growth of mutagenized Chlamydomonas reinhardtii cells (colony formation) [1] | IC50 (wild type PPO enzyme) [pM] | Activity (FU/min) [2] [FU/min]
C#CCN1C(=O)C(F)(F)Oc2cc(F)c(-n3c(=O)n(C)c(=S)n(C)c3=O)cc21 [benzoxazinone 1.a.35] | susceptible cells do not grow | 120 | 
B1 |  |  | 353
B2 |  |  | 731
B3 |  |  | 203
